Here are results for two molecules from US20170204167A1.

Test [1] has as its target HA of H5N1 A/Viet Nam/1203/04 (influenza A virus H5N1 A/Viet Nam/1203/04). Put plainly: ELISA on HA. On the technique in general: ELISA stands for enzyme-linked immunosorbent assay.
In test [2] the target is HA of H9 A/HK/1073/99 (influenza A virus H9N2 A/Hong Kong/1073/99). In words: ELISA on HA.
In test [3] the target is HA of H5N1 A/Viet Nam/1203/04 (influenza A virus H5N1 A/Viet Nam/1203/04). In words: cell-based or functional assay.
Test [4] concerns the target HA of H10N4 A/mink/Sweded/3900/84 (influenza A virus H10N4 A/mink/Sweded/3900/84). Put plainly: ELISA on recombinant or purified HA.
Test [5] has as its target HA of H5N1 A/Viet Nam/1/05 (influenza A virus H5N1 A/Viet Nam/1/05). Put plainly: ELISA on recombinant or purified HA.
For test [6], the target named is HA of H5N1 A/Viet Nam/1203/04 (influenza A virus H5N1 A/Viet Nam/1203/04). In words: ELISA on recombinant or purified HA.
The target in test [7] is HA of H6N5 A/shearwater/Australia/1/72 (influenza A virus H6N5 A/shearwater/Australia/1/72). Put plainly: ELISA on recombinant or purified HA.
Test [8] concerns the target HA of H7N3 A/Canada/444/04 (influenza A virus H7N3 A/Canada/444/04). Put plainly: ELISA on recombinant or purified HA.
Test [9] has as its target HA of H8N4 A/Alberta/357/84 (influenza A virus H8N4 A/Alberta/357/84). Put plainly: ELISA on recombinant or purified HA.
The target in test [10] is HA of H9 A/HK/1073/99 (influenza A virus H9N2 A/Hong Kong/1073/99). Put plainly: ELISA on recombinant or purified HA.
Test [11] has as its target H5-HA (Table 7) (influenza A virus, H5 subtype, strain not stated). Put plainly: ELISA on baculovirus-derived recombinant HA.
Test [12] has as its target H7-HA (Table 7) (influenza A virus, H7 subtype, strain not stated). Put plainly: ELISA on baculovirus-derived recombinant HA.

Broadly, the EC50 is the concentration that produces a half-maximal response.

B1: FI6 variant 2 (antibody, V domains shown)
VH: QVQLVQSGGGVVQPGRSLRLSCVASGFTFSTYAMHWVRQAPGRGLEWVAVISYDGNYKYYADSVKGRFSISRDNSNNTLHLEMNTLRTEDTALYYCAKDSQLRSLLYFEWLSQGYFDPWGQGTLVTVTS
VL: DIQMTQSPDSLAVSLGARATINCKSSQSVTFNYKNYLAWYQQKPGQPPKVLIYWASARESGVPDRFSGSGSGTDFTLTISSLQAEDVAVYYCQQHYRTPPTFGQGTKVEIK
As for B1, the Binding to HA by ELISA (% of subtype specific control antibodies) in test [1] is 73.7%; in [2] it was 98.7%. Moreover, in test [3], the Neutralization of HA-pseudotypes (IC90, µg/ml) stood at 0.02 µg/mL. In addition, the EC50 in [4] was 0.09 µg/mL; in test [5] it was 0.01 µg/mL; in [6], 0.014 µg/mL; in test [7], 0.041 µg/mL; in [8], 0.033 µg/mL; in test [9], 0.033 µg/mL. The EC50 in [10] is 0.014 µg/mL; in [11], 0.0145 µg/mL; in test [12] it was 0.0314 µg/mL.

B2: FI28 variant 1 (antibody, V domains shown)
VH: EVQLVESGGGAVQPGESLKLSCAASGFTFSNYGMHWVRQAPGKGLEWVAVISYDGSNKYYADSVKGRFTISRDNSKDTLYLQMNSLRAEDTALFYCAKERPLRLLRYFDWLSGGANDYWGQGTLVTVSS
VL: DIVMTQSPDSLAVSLGERATINCKSSQSVLYSSNNKNYLAWYQQKPGQPPKLLIDWASTRESGVPDRFSGSGSGTDFTLTISNLQVEDVAVYYCQQYYRSPSFGQGTKLEIK
On to B2, for which the values for the Binding to HA by ELISA (% of subtype specific control antibodies) in test [1] and in [2] were 46.3% and 87.7%, respectively. In [3], the Neutralization of HA-pseudotypes (IC90, µg/ml) came to 0.02 µg/mL.
